For this series, the target named is T1, RVFV nucleoprotein (N) (Rift Valley fever virus, UniProt D3K5I7 1-245).
T1 sequence: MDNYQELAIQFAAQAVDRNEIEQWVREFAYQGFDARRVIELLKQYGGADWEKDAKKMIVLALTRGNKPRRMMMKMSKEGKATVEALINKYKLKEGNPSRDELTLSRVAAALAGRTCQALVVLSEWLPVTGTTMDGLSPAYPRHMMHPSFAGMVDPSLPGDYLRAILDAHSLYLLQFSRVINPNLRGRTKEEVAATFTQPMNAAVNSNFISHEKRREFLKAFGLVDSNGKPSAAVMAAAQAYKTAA
The experiment in a line: fluorescence bead binding assay.
Turning to CTCCAGCGTAAACTACTGAAGACTGTGCCGGAAAGATC (ssDNA) [RV-2 (RVF 2)], the Kd – broadly, the constant that tells how readily two partners part at equilibrium – was 15.4 nM.

For the molecule AGATGTCCTGCGTCGAGACACTTCTGCATTACTACGTTGG (ssDNA) [RV-3 (RVF 3)], the Kd is 18.6 nM. Take CAGAAAAAGTGCCGACCGAACGATGTGTAAGCGCTATGAGA (ssDNA) [RV-5]: the Kd is 41 nM.

The record behind these values is article PMC11470950.
